The text below walks through data of patent publication US12708119B2, “Methods of reducing or preventing clostridioides difficile colonization” (priority 2020, dated 2026).

For series [1], the system named is Clostridioides difficile R20291 spores. Kind of series: Sporicidal enhancement of CotE_H2 and CDec_D1 aptamers in combination with Clinell sporicidal solution: growth / MSC (Examples 4 and 6). The conditions noted are these: for effect of the addition of aptamer on the sporicidal capabilities of Clinell sporicidal solution / growth of spores in the presence of aptamer alone: R20291 spores. The format is cell-based. On the procedure:
(§1) Prior to testing, CotE_H2 aptamers were diluted in nuclease free water to a concentration of 80 μM. The aptamers were folded by heating to 95° C. in a digital dry bath for 5 minutes and then immediately placed on ice and cooled to 2° C. The aptamers were stored at 2-4° C. while in use. A Clostridioides difficile SH11 bacterial spore inoculum was prepared to 1×10^7±5×10^6 CFUmL^−1 according to internal procedures. The inoculum was confirmed by serial dilution and plating out the resultant suspensions onto brain heart infusion agar supplemented with horse blood and yeast (BHI-YHT). CotE_H2 aptamers were further diluted in “TbKst” buffer to obtain 2× in-test concentrations (40, 20, 10 and 5 μM). Ten microlitres of C. difficile spores were added to 10 μL of each 2× in-test concentration of CotE_H2 aptamer. The spore suspension was pipette mixed and incubated with CotE_H2 aptamer at room temperature for one hour. The spores were then washed three times by centrifuging at 13,400 RPM for 10 minutes. In each wash the supernatant was removed, and the pellet was resuspended in 100 μL of “TbKst” buffer. Following the third wash, the spores were resuspended in 100 μL of “TbKst” buffer and vortexed to obtain a homogenous solution.
(§2) A total of six 2× in-test concentrations (1:2 dilutions) of the sporicidal test agent were prepared from the stock (100%, 50%, 25%, 12.5%, 6.25%, 3.125%). Negative and positive control solutions were also prepared. Ten microliter aliquots of each sporicidal test agent concentration or control solution were added to the wells of a 96-well plate. A 10 μL aliquot of the aptamer-spore suspension was added to each test agent or control solution and pipette mixed. The final in-test concentrations of the sporicidal test agent were 50%, 25%, 12.5%, 6.25%, 3.125%, 1.5625%. The plates were then incubated for 15 minutes at 37° C.±2° C. in an anaerobic environment. Following incubation, 50 μL of GH neutraliser was added to each well and pipette mixed. A 10 μL aliquot of neutralised suspension was taken from each well and transferred to an agar plate and incubated for 48 hours at 37° C.±2° C. in an anaerobic environment. Growth was recorded as “+” and no growth as “−”. The minimum sporicidal concentration (MSC) for each spore and aptamer concentration was identified as the lowest concentration with no growth for all replicates. […] The test was repeated without the presence of the aptamers and without the presence of the Clinell® sporicidal solution. Testing was also repeated using C. difficile ATCCR 43598™ and C. difficile R20291 spores. Testing was performed in triplicate. The method was repeated with CDec_D1 aptamers for all three strains of C. difficile spores.

Series [2] has as its system Clostridioides difficile ATCC® 43598™ spores. The description is as above. The format is cell-based. On the procedure: as §1, §2
The test system of series [3] is Clostridioides difficile SH11 spores. The description is as above. The format is cell-based. Particulars: for effect of the addition of aptamer on the sporicidal capabilities of Clinell sporicidal solution / growth of spores in the presence of aptamer alone: SH11 spores. On the procedure: as §1, §2
The test system of series [4] is C. difficile R20291 spores. Nature of the series: Sporicidal enhancement of CDiff_F1 aptamer in combination with Clinell sporicidal solution: growth / MSC (Example 3). The format is cell-based, Clostridioides difficile. Details: key to Growth observed after recovering viable C. difficile R20291 spores: Growth was recorded as “+”; no growth as “−”. Particulars: for Growth observed after recovering viable C. difficile R20291 spores: Aptamers only, treatment 15 minutes. On the procedure: (§3) Prior to testing, the CDiff_F1 aptamers were diluted in nuclease free water to a concentration of 80 μM. The aptamers were folded by heating to 95° C. in a digital dry bath for 5 minutes and then immediately placed on ice and cooled to 2° C. The aptamers were stored at 2-4° C. while in use. A C. difficile SH11 bacterial spore inoculum was prepared to 1×108±5×10^7 CFUmL−1 according to internal procedures. The inoculum was confirmed by serial dilution and plating out the resultant suspensions onto brain heart infusion agar supplemented with horse blood and yeast (BHI-YHT). The CDiff_F1 aptamers were further diluted in “BB+Mg2+” buffer to obtain two times in-test concentrations ([…]). Ten microlitres of C. difficile spores were added to 10 μL of each two times in-test concentration of CDiff_F1 aptamer. The spore suspension was pipette mixed and incubated with CDiff_F1 aptamer at room temperature for one hour. The spores were then washed three times by centrifuging at 13,400 RPM for 10 minutes. In each wash the supernatant was removed, and the pellet was resuspended in 100 μL of “BB+Mg2+” buffer. Following the third wash, the spores were resuspended in 100 μL of “BB+Mg2+” buffer and vortexed to obtain a homogenous solution.
(§4) A total of six, two times in-test concentrations of each sporicidal test agent were prepared from the stock (100%, 50%, 25%, 12.5%, 6.25%, 3.125%). Negative and positive control solutions were also prepared. Ten microliter aliquots of each sporicidal test agent concentration or control solution were added to the wells of a 96-well plate. A 10 μL aliquot of the aptamer-spore suspension was added to each test agent or control solution and pipette mixed. The final in-test concentrations of each sporicidal test agent were 50%, 25%, 12.5%, 6.25%, 3.125%, 1.5625%. The plates were then incubated for 15 minutes at 37° C.±2° C. in an anaerobic environment. Following incubation, 50 μL of GH neutraliser was added to each well and pipette mixed. A 10 μL aliquot of neutralised suspension was taken from each well and transferred to an agar plate and incubated for 48 hours at 37° C.±2° C. in an anaerobic environment. Growth was recorded as “+” and no growth as “−”. The minimum sporicidal concentration (MSC) for each concentration was identified as the lowest concentration with no growth for all replicates. […] The test was repeated without the presence of the aptamers and without the presence of the Clinell® sporicidal solution. Testing was also repeated using C. difficile ATCC® 43598™ and C. difficile R20291 spores. Testing was performed in triplicate.

The next series concerns C. difficile SH11 spores. Described as above. Type of series: cell-based, Clostridioides difficile. Details: key to Growth observed after recovering viable spores: Growth was recorded as “+”; no growth as “−”. The conditions noted are these: for Growth observed after recovering viable spores: aptamers only, treatment 15 minutes. The protocol: as §3, §4
In series [5] the test system is C. difficile ATCC® 43598™ spores. The description is as above. Details: key to Growth observed after recovering viable C. difficile ATCC 43598 spores: Growth was recorded as “+”; no growth as “−”. The conditions noted are these: for Growth observed after recovering viable C. difficile ATCC 43598 spores: Aptamers only, treatment 15 minutes. Type of series: cell-based, Clostridioides difficile. On the procedure:
as §3, §4

Setting [6] is: C. difficile R20291 spores, aptamer without Clinell sporicidal solution.
The mark [7] stands for this setting: any concentration of CDec_D1 aptamers without Clinell sporicidal solution.
[8] abbreviates: C. difficile ATCC ® 43598 ™ spores, aptamer without Clinell sporicidal solution.
[9] abbreviates: C. difficile SH11 spores, aptamer without Clinell sporicidal solution.
[10] abbreviates: any concentration of CotE_H2 aptamers without Clinell sporicidal solution.

Entries after “also recorded” stand apart in the source; their conditions may differ. Some results are limits rather than exact numbers.

B1: CDec_D1: aptamer against CdeC, SEQ ID NO: 6; Table 4 lists fragments SEQ ID NO: 38, 39 under CdeC_D1 (nucleic acid)
DNA: CCAGTGTAGACTACTCAATGCCGTGGACTGGTCGGGTTTGGATTCGGCAGATGAATCAGTAGTACTATCCACAGGTCAACC
modifications: DNA, backbone and methylation of C not given here
B1: the “MSC of CDec_D1” value in series [1] (setting [6]), in series [2] (setting [8]) and in series [3] (setting [9]) was greater than 20 µM each time. The “effect of the addition of aptamer on the sporicidal capabilities of Clinell sporicidal solution” value (shortened to “effect of the addition of aptamer”) in series [1], in series [2] (ATCC 43598 spores) and in series [3] was “enhanced” in each case. Further, the “growth of spores in the presence of aptamer alone” value (shortened to “growth of spores”) is listed as “unaffected” in series [1] (setting [7]); “unaffected” in series [2] (ATCC 43598 spores, any concentration of CDec_D1 aptamers without Clinell sporicidal solution); “unaffected” in series [3] (setting [7]).

B2: CotE_H2: aptamer against CotE, SEQ ID NO: 11; Table 4 lists fragments SEQ ID NO: 26-30 under the same ID (nucleic acid)
DNA: CCAGTGTAGACTACTCAATGCGGCTGTGTGACTTGACCTTTGGAATGGGTGGGAGGGATGGGTACTATCCACAGGTCAACC
modifications: listed as DNA, chemistry not given here
Consider B2, for which the “MSC of CotE_H2” value in series [1] (setting [6]), in series [2] (setting [8]) and in series [3] (setting [9]) was greater than 20 µM each time. Moreover, the “effect of the addition of aptamer” value in series [1] and in series [3] was “enhanced” throughout. Further, the “growth of spores” value in series [1] (setting [10]) is on record as “unaffected”; in series [2] (ATCC 43598 spores, any concentration of CotE_H2 aptamers without Clinell sporicidal solution) it was “unaffected”; in series [3] (setting [10]), “unaffected”.

B3: CDiff_F1: aptamer against C.diff spores, SEQ ID NO: 1; Table 4 lists fragments SEQ ID NO: 24, 44, 45 under the same ID (nucleic acid)
DNA: CCAGTGTAGACTACTCAATGCTCTTACGATCCTCACCTGCTAGCACACCCATATCCCATGCGTACTATCCACAGGTCAACC
modifications: listed as DNA, chemistry not given here
On to B3, for which the “Growth observed after recovering viable C. difficile R20291 spores” value in series [4] (CDiff_F1 aptamer 2.5 μM), in series [4] (CDiff_F1 aptamer 5 μM), in series [4] (CDiff_F1 aptamer 10 μM) and in series [4] (CDiff_F1 aptamer 20 μM) was “+” in each case. The “effect of the addition of aptamer” value (in series [4] (R20291 spores); with C. difficile SH11 spores (SH11 spores); in series [5] (ATCC 43598 spores)) was “enhanced” each time. The “MSC of CDiff_F1” value in series [4] (R20291 spores, aptamer without Clinell sporicidal solution) is greater than 20 µM; in the series on C. difficile SH11 spores (SH11 spores, aptamer without Clinell sporicidal solution), greater than 20 µM; in series [5] (ATCC 43598 spores, aptamer without Clinell sporicidal solution), greater than 20 µM. In addition, the “growth of spores” value in series [4] (R20291 spores, only CDiff_F1 aptamers) is on record as “did not affect”; with C. difficile SH11 spores (SH11 spores, any concentration of CDiff_F1 aptamers without Clinell sporicidal solution), “unaffected; also recorded: did not affect”; in series [5] (ATCC 43598 spores, any concentration of CDiff_F1 aptamers without Clinell sporicidal solution) it was “unaffected; also recorded: did not affect”. Besides, the “Growth observed after recovering viable spores” value was “+” with C. difficile SH11 spores (CDiff_F1 2.5 μM, SH11 spores); “+” in the series on C. difficile SH11 spores (CDiff_F1 5 μM, SH11 spores); “+” with C. difficile SH11 spores (CDiff_F1 10 μM, SH11 spores); “+” in the series on C. difficile SH11 spores (CDiff_F1 20 μM, SH11 spores). For the same molecule, the “fold reduction in the concentration of peracetic acid required for sporicidal activity” value in the series with C. difficile SH11 spores (spores of the SH11 strain, 20 μM of the aptamer) is listed as “up to 4 fold”; in series [5] (spores of the ATCC 43598 strain, after 15 minutes), “up to 2 fold”. Further, the “Growth observed after recovering viable C. difficile ATCC 43598 spores” value in series [5] (CDiff_F1 aptamer 2.5 μM), in series [5] (CDiff_F1 aptamer 5 μM), in series [5] (CDiff_F1 aptamer 10 μM) and in series [5] (CDiff_F1 aptamer 20 μM) was “+” throughout.
